The source of these data is the FLAb antibody collection (doi:10.7554/elife.23156).

One may read the Kd as the concentration at which binding is half-saturated.

To fix the notation:
B1: scFv; the commonest letter at each place (parent)
chain 1: EVKLDETGGGLVQPGRPMKLSCVASGFTFSDYWMNWVRQSPEKGLEWVAQIRNKPYNYETYYSDSVKGRFTISRDDSKSSVYLQMNNLRVEDMGIYYCTGSYYGMDYWGQGTSVTVS
chain 2: DVVMTQTPLSLPVSLGDQASISCRSSQSLVHSNGNTYLRWYLQKPGQSPKVLIYKVSNRFSGVPDRFSGSGSGTDFTLKISRVEAEDLGVYFCSQSTHVPWTFGGGTKLEIK

Bounds are passed on as bounds.

The variants in the series “fluorescein” derive from B1. Kind of series: Kd (Tite-Seq). The following applies: with fluorescein; format: scFv 4-4-20, heavy + light.
The variants in series [1] derive from B1. Kind of series: yeast surface expression (ratio to wild type); higher = more expressed. The following applies: format: scFv 4-4-20, heavy + light.

Consider chain 1 F29M S30H Y32S, for which the dissociation constant (Kd) with fluorescein was ≥ 10 µM. For the same variant, the yeast surface expression in series [1] amounted to 0.982.

Consider chain 1 F29I W33D M34W, for which the Kd with fluorescein was ≥ 10 µM. Besides, the yeast surface expression in series [1] came out at 0.719.

In the case of chain 1 F29E M34E, the Kd with fluorescein was ≥ 10 µM. Besides, the yeast surface expression in series [1] turned out to be 0.455.

On to chain 1 F29L M34W, for which, in the series with fluorescein, the Kd was ≥ 10 µM. Further, in series [1], the yeast surface expression turned out to be 0.795.

For chain 1 F29L M34D, the Kd with fluorescein was ≥ 10 µM. In addition, the yeast surface expression in series [1] amounted to 0.656.

Consider chain 1 F29L M34C, for which the Kd with fluorescein is ≥ 10 µM. Also, the yeast surface expression in series [1] was found to be 0.745.

Turning to chain 1 F29I D31K, the equilibrium dissociation constant (Kd) in the series with fluorescein was found to be 0.00493 µM. In series [1], the yeast surface expression was 0.958.

Regarding chain 1 F29P M34C, the Kd in the series with fluorescein is ≥ 10 µM. In addition, the yeast surface expression in series [1] came to 0.755.

As for chain 1 D106S W108V, in the series with fluorescein, the Kd came to 0.55 µM. Further, the yeast surface expression in series [1] is 0.859.

For the variant chain 1 F29D D31E, in the series with fluorescein, the dissociation constant (Kd) is ≥ 10 µM. Also, the yeast surface expression in series [1] turned out to be 1.01.

chain 1 F29L S30T V37W: in the series with fluorescein, the Kd is ≥ 10 µM. Further, the yeast surface expression in series [1] was 0.536.

chain 1 F29A D31P: the Kd in the series with fluorescein is ≥ 10 µM. In addition, in series [1], the yeast surface expression amounted to 0.922.

With chain 1 F29L N35D, the dissociation constant (Kd) in the series with fluorescein is ≥ 10 µM. Moreover, in series [1], the yeast surface expression stood at 0.64.

Take chain 1 F29L N35T: the equilibrium dissociation constant (Kd) in the series with fluorescein was ≥ 10 µM. In series [1], the yeast surface expression stood at 0.76.

Take chain 1 F29I W33H: the dissociation constant (Kd) with fluorescein was ≥ 10 µM. The yeast surface expression in series [1] turned out to be 0.763.

With chain 1 F29D Y32C, the dissociation constant Kd with fluorescein is ≥ 10 µM. Besides, in series [1], the yeast surface expression is 0.924.

Take chain 1 F29D Y32E: in the series with fluorescein, the Kd is ≥ 10 µM. In series [1], the yeast surface expression amounted to 0.599.

With chain 1 F29M D31T, in the series with fluorescein, the Kd worked out at 0.00746 µM. For the same variant, the yeast surface expression in series [1] was 0.848.

In the case of chain 1 F29M D31I, in the series with fluorescein, the dissociation constant Kd was ≥ 10 µM. Moreover, the yeast surface expression in series [1] was 0.518.

As to chain 1 F29L V37P, the Kd with fluorescein is ≥ 10 µM. Further, the yeast surface expression in series [1] worked out at 0.419.

In the case of chain 1 F29G D31Y, the Kd in the series with fluorescein is ≥ 10 µM. Moreover, the yeast surface expression in series [1] was determined as 0.708.

With chain 1 F29G D31E, the dissociation constant Kd with fluorescein is ≥ 10 µM. Besides, the yeast surface expression in series [1] is 0.955.

For chain 1 F29G D31R, the Kd with fluorescein was ≥ 10 µM. Further, the yeast surface expression in series [1] was 0.931.

Regarding chain 1 F29L M34K W36P, the Kd in the series with fluorescein was determined as 0.228 µM. The yeast surface expression in series [1] was determined as 0.61.

Regarding chain 1 F29K Y32G, the equilibrium dissociation constant (Kd) with fluorescein is ≥ 10 µM. Also, in series [1], the yeast surface expression turned out to be 0.778.

chain 1 F29K Y32N: the dissociation constant Kd with fluorescein is ≥ 10 µM. Also, in series [1], the yeast surface expression stood at 0.609.

Consider chain 1 F29D W33C M34D, for which, in the series with fluorescein, the Kd was ≥ 10 µM. In addition, the yeast surface expression in series [1] was 0.403.

Take chain 1 F29I W33A W36Y: the Kd with fluorescein was ≥ 10 µM. Besides, in series [1], the yeast surface expression is 0.454.

For chain 1 F29A W33I, in the series with fluorescein, the dissociation constant (Kd) is ≥ 10 µM. For the same variant, the yeast surface expression in series [1] amounted to 0.852.

As for chain 1 F29A W33N, the equilibrium dissociation constant (Kd) with fluorescein is ≥ 10 µM. Moreover, the yeast surface expression in series [1] came to 0.741.

Consider chain 1 F29R Y32P N35E, for which, in the series with fluorescein, the equilibrium dissociation constant (Kd) was ≥ 10 µM. Further, in series [1], the yeast surface expression turned out to be 0.819.

In the case of chain 1 F29A V37S, in the series with fluorescein, the Kd was ≥ 10 µM. Besides, in series [1], the yeast surface expression was 0.545.

chain 1 F29A V37I: the dissociation constant Kd with fluorescein worked out at 0.0851 µM. In addition, the yeast surface expression in series [1] is 0.834.

On to chain 1 F29A V37P, for which, in the series with fluorescein, the Kd was ≥ 10 µM. Also, the yeast surface expression in series [1] was determined as 0.153.

As for chain 1 F29D W33Y, in the series with fluorescein, the Kd is ≥ 10 µM. The yeast surface expression in series [1] turned out to be 0.766.

Regarding chain 1 F29D W33L, in the series with fluorescein, the dissociation constant Kd was ≥ 10 µM. In addition, in series [1], the yeast surface expression was 0.795.

Take chain 1 F29D W33V: the Kd in the series with fluorescein is ≥ 10 µM. For the same variant, the yeast surface expression in series [1] amounted to 0.87.

Turning to chain 1 F29Q Y32E W33S, the Kd with fluorescein is ≥ 10 µM. Further, the yeast surface expression in series [1] is 0.761.

chain 1 F29H N35V: in the series with fluorescein, the dissociation constant Kd was 0.00251 µM. The yeast surface expression in series [1] worked out at 2.76.

In the case of chain 1 F29M W33C, the Kd with fluorescein is ≥ 10 µM. Further, the yeast surface expression in series [1] came to 0.983.

In the case of chain 1 F29M W33P, the equilibrium dissociation constant (Kd) with fluorescein is ≥ 10 µM. For the same variant, in series [1], the yeast surface expression was determined as 0.639.

Consider chain 1 F29M W33V, for which the Kd in the series with fluorescein is ≥ 10 µM. The yeast surface expression in series [1] worked out at 0.982.

As for chain 1 F29M W33M, the dissociation constant Kd with fluorescein is ≥ 10 µM. For the same variant, in series [1], the yeast surface expression was 0.873.

Take chain 1 F29C W33G: the dissociation constant Kd with fluorescein is ≥ 10 µM. The yeast surface expression in series [1] came to 0.544.

Turning to chain 1 F29C W33E, in the series with fluorescein, the Kd is ≥ 10 µM. Further, the yeast surface expression in series [1] came out at 0.556.

On to chain 1 F29C W33Q, for which the Kd with fluorescein is ≥ 10 µM. Moreover, the yeast surface expression in series [1] is 0.687.

As to chain 1 F29N N35A, in the series with fluorescein, the Kd was ≥ 10 µM. For the same variant, in series [1], the yeast surface expression came out at 0.862.

As for chain 1 F29I V37D, in the series with fluorescein, the equilibrium dissociation constant (Kd) is ≥ 10 µM. The yeast surface expression in series [1] was determined as 1.12.

As for chain 1 F29N D31C M34N, in the series with fluorescein, the Kd was ≥ 10 µM. In addition, the yeast surface expression in series [1] is 0.701.

Take chain 1 F29D N35F W36G: the Kd with fluorescein was ≥ 10 µM. Further, the yeast surface expression in series [1] turned out to be 0.644.

With chain 1 F29Q S30C N35I, the Kd with fluorescein is ≥ 10 µM. The yeast surface expression in series [1] amounted to 0.232.

For the variant chain 1 F29Q M34W, in the series with fluorescein, the Kd is ≥ 10 µM. Also, the yeast surface expression in series [1] worked out at 1.56.

On to chain 1 F29C S30T N35E, for which, in the series with fluorescein, the Kd came to 9.5 µM. The yeast surface expression in series [1] was found to be 0.668.

Regarding chain 1 F29L W33D W36S, the Kd in the series with fluorescein is ≥ 10 µM. For the same variant, the yeast surface expression in series [1] worked out at 0.585.

Regarding chain 1 F29I W33M V37P, in the series with fluorescein, the Kd was ≥ 10 µM. The yeast surface expression in series [1] is 0.444.

On to chain 1 D106T G109M, for which the equilibrium dissociation constant (Kd) with fluorescein is ≥ 10 µM. Further, the yeast surface expression in series [1] is 0.285.

In the case of chain 1 D106T G109R, the dissociation constant Kd with fluorescein was ≥ 10 µM. Moreover, in series [1], the yeast surface expression turned out to be 0.26.

Turning to chain 1 F29P Y32I M34L, the Kd with fluorescein is ≥ 10 µM. Further, the yeast surface expression in series [1] was 0.858.
